In patent US8632989B1, “Mutant insulin degrading enzyme and methods of use” (University of Kentucky Research Foundation, priority 2011, dated 2014):

Columns and labels:
Abz-GGFLRKHGQ-EDDnp [1] = target: T1, Abz-GGFLRKHGQ-EDDnp (Rattus norvegicus, UniProt P35559); test: Activation by ATP of Abz-[…]-EDDnp hydrolysis, IDE and ATP binding site mutants; type: biochemical; conditions: 10 μM Abz-GGFLRKHGQ-EDDnp as substrate
T1 construct: hexahistidine (N); made in house; host or cells: Sf9 insect cells (baculovirus, pFastBac HTb)
T1 sequence (P35559 41-1019): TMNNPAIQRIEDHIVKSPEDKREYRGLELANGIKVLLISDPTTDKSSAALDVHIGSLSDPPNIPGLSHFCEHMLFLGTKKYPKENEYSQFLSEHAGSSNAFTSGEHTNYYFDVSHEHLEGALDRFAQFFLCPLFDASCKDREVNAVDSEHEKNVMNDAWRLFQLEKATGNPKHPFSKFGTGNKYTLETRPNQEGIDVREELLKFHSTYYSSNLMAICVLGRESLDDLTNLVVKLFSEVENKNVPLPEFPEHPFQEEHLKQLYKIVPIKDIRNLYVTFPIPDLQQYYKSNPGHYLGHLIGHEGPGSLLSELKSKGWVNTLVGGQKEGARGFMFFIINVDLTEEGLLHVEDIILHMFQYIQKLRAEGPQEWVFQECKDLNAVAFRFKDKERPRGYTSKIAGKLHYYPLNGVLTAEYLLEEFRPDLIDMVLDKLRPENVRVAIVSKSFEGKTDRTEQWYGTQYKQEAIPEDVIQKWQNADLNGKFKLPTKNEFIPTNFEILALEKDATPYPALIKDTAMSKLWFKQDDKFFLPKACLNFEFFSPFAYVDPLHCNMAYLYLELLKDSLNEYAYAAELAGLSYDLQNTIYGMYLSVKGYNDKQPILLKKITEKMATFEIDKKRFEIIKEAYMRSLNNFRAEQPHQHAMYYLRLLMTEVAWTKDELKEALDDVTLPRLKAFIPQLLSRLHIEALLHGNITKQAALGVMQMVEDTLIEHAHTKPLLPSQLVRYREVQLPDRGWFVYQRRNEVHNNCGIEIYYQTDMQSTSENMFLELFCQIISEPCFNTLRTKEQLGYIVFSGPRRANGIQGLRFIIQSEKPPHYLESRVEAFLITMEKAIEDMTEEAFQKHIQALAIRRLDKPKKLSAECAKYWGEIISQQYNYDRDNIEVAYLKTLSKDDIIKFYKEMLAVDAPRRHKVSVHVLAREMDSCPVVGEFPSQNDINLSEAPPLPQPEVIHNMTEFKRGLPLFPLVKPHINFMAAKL
Protocol: Activity was determined in 50 mM Tris-HCl, pH 7.4 with 10 μM Abz-[…]-EDDnp (SEQ ID NO:3) as substrate at the indicated concentrations of ATP (panel A), PPPi (panel B) or, TNP-ATP (panel C). Each reaction contained 0.5 μg of enzyme.
IDE activity was determined by measuring the increase in fluorescence that occurs when the enzyme cleaves the internally quenched fluorogenic substrate Abz-[…]-EDDnp (SEQ ID NO:3) at the R—K bond (Song et al., Journal of Biologial Chemistry 276, 1152-1155 (2001)). The reaction was followed on a SpectraMax Gemini XS fluorescence plate reader using an excitation and emission wavelengths of 318 nm and 419 nm, respectively. Initial velocities were determined using SoftMax Pro 4.0 and kinetic constants calculated using GraphPad Prism 4.0. ATPase activity was measured by following Pi release with acid-molybdate as described by Harder et al. (Harder et al., Biochemical Journal 298 (Pt 2), 395-401 (1994)).

Abz-GGFLRKHGQ-EDDnp [2] = test: Enzyme activity assay, kinetics of wild type rIDE and distal site mutants with fluorogenic substrate; type: biochemical
Protocol: FIG. 17. Effects of distal site mutations. (A) Comparison of the kinetics of wild type IDE with the distal site mutants. Activity was measured with varying amounts of Abz-[…]-EDDnp (SEQ ID NO:3) substrate as indicated. Either hyperbolic (Michaelis-Menten equation) or sigmoidal curves (Hill equation) were fit to the data. (B) Effect of bradykinin on the activity of wild type IDE and the distal site mutants. (C) Activation of wild type IDE and distal site mutants by ATP. Relative activity is the fold activation above the level of the wild type enzyme alone.
The activity of IDE was measured by following the increase in fluorescence upon hydrolysis at the L-R bond of the fluorogenic peptide Abz-[…]-EDDnp (SEQ ID NO:3) on a SpectraMax Gemini XS fluorescence plate reader using an excitation wavelength of 318 nm and emission wavelength of 419 nm. Reactions were carried out in 200 μl volumes containing 50 mM Tris-HCl, pH 7.4, 1.92 μg of wild type rIDE, 4.6 μg of rIDE-V360S, 4.3 μg rIDE-I374S, or 1.63 μg of rIDE-Y609F. For measurements of activation by bradykinin, IDE activity was determined with 10 μM Abz-[…]-EDDnp (SEQ ID NO:3) as substrate in 50 mM Tris-HCl buffer, pH 7.4. The amount of protein was 0.5 μg for wild type rIDE and 5 μg for each of the IDE distal-site mutants. Data were analyzed using Softmax 4.0 (Molecular Devices) and kinetic parameters calculated with Prism (Graphpad Software). […] Under these assay conditions, both wild type and mutant rIDE are almost completely dimeric.

B1: IDE: Native rat insulin degrading enzyme (SEQ ID NO:1), expressed as hexahistidine fusion protein in Sf9 insect cells (protein, listed as Rattus norvegicus)
chain: MRNGLVWLLHPALPSTLHSILGARPPPVKRLCGFPKQIYSTMNNPAIQRIEDHIVKSPEDKREYRGLELANGIKVLLISDPTTDKSSAALDVHIGSLSDPPNIPGLSHFCEHMLFLGTKKYPKENEYSQFLSEHAGSSNAFTSGEHTNYYFDVSHEHLEGALDRFAQFFLCPLFDASCKDREVNAVDSEHEKNVMNDAWRLFQLEKATGNPKHPFSKFGTGNKYTLETRPNQEGIDVREELLKFHSTYYSSNLMAICVLGRESLDDLTNLVVKLFSEVENKNVPLPEFPEHPFQEEHLKQLYKIVPIKDIRNLYVTFPIPDLQQYYKSNPGHYLGHLIGHEGPGSLLSELKSKGWVNTLVGGQKEGARGFMFFIINVDLTEEGLLHVEDIILHMFQYIQKLRAEGPQEWVFQECKDLNAVAFRFKDKERPRGYTSKIAGKLHYYPLNGVLTAEYLLEEFRPDLIDMVLDKLRPENVRVAIVSKSFEGKTDRTEQWYGTQYKQEAIPEDVIQKWQNADLNGKFKLPTKNEFIPTNFEILALEKDATPYPALIKDTAMSKLWFKQDDKFFLPKACLNFEFFSPFAYVDPLHCNMAYLYLELLKDSLNEYAYAAELAGLSYDLQNTIYGMYLSVKGYNDKQPILLKKITEKMATFEIDKKRFEIIKEAYMRSLNNFRAEQPHQHAMYYLRLLMTEVAWTKDELKEALDDVTLPRLKAFIPQLLSRLHIEALLHGNITKQAALGVMQMVEDTLIEHAHTKPLLPSQLVRYREVQLPDRGWFVYQRRNEVHNNCGIEIYYQTDMQSTSENMFLELFCQIISEPCFNTLRTKEQLGYIVFSGPRRANGIQGLRFIIQSEKPPHYLESRVEAFLITMEKAIEDMTEEAFQKHIQALAIRRLDKPKKLSAECAKYWGEIISQQYNYDRDNIEVAYLKTLSKDDIIKFYKEMLAVDAPRRHKVSVHVLAREMDSCPVVGEFPSQNDINLSEAPPLPQPEVIHNMTEFKRGLPLFPLVKPHINFMAAKL
modifications: hexahistidine tag; wild-type Insulin Degrading Enzyme (IDE) from rat
Abz-GGFLRKHGQ-EDDnp [1]
  activation by ATP: roughly 150 fold
Abz-GGFLRKHGQ-EDDnp [2]; Abz-GGFLRKHGQ-EDDnp substrate
  Specific activity: 8,131 nmol/min/mg
Abz-GGFLRKHGQ-EDDnp [2]; rat IDE, Abz-GGFLRKHGQ-EDDnp as substrate
  Km: 15.9 ± 1.19 µM
Abz-GGFLRKHGQ-EDDnp [2]; rat IDE, Abz-GGFLRKHGQ-EDDnp as substrate, 50 mM Tris-HCl, pH 7.4
  Vmax: 35.5 ± 11.6 nmol/min/mg
Abz-GGFLRKHGQ-EDDnp [2]; rat IDE, Abz-GGFLRKHGQ-EDDnp as substrate, listed as Wild Type
  Hill coefficient: 1.8 ± 0.16
Abz-GGFLRKHGQ-EDDnp [2]; rat IDE, Abz-GGFLRKHGQ-EDDnp as substrate, listed as wild type enzyme
  Hill coefficient: 1.80
